The source of these data is patent US20110311555A1.

For the assay, the target named is endogenous AP-1 (activator protein 1) in 293 cells, activated by MEKK1. Nature of the assay: cell-based or functional assay. Particulars: scale: normalized promoter activity.

As for “Tcl1 R52H (pCMV5-TCL1 R52H construct) (from UniProt P56279 1-114)”, the AP-1 dependent transactivation (pAP-1-Luc reporter, MEKK1-activated, 293 cells), normalized promoter activity came to 176.
